Reference: patent US20030108549A1 (GENETICS INSTITUTE, published 2003)
Values belong to the binder of their own block, whether it stands above or below them.

Target: T1, human MU-1 Ig fusion protein (human, UniProt Q9HBE5 20-235)
T1 construct: also called MUFc; human Ig fusion protein; not shown: Ig portion
Test: Biacore; MU-1 Ig fusion immobilized on chip
Method: Both human and murine Ig fusion proteins were constructed and immobilized on Biacore chips in an effort to identify the ligand for MU-1. A variety of cell culture conditioned media as well as a panel of known cytokines were evaluated for binding to MU-1. Some cytokines were also tested in combination with other receptor chains in the family to consider the possibility that MU-1 may require a second receptor chain for ligand binding. The following cytokines were tested and found to be negative for MU-1 binding: mIL-2, hIL-2, hIL-i5, mIL-7, TSLP, TSLP+IL7, TSLP+IL7R, TSLP+IL7g, TSLP+IL-2, TSLP+1L2+IL2Rbeta, IL2Rbeta, IL2Rgamma, IL7R, IL2+2Rbeta, IL2+2Rgamma, IL1 5+IL2Rbeta, 1L15+2Rgamma, 1IL7+2Rgamma, IL2+IL7R, IL1 5+IL7R, IL7+IL7R. Known receptors have been immobilized as well and tested for MUFc binding with negative results. IL-IS will bind to IL2Rb but not IL2Rg or MUFc.

T1 sequence (Q9HBE5 20-235): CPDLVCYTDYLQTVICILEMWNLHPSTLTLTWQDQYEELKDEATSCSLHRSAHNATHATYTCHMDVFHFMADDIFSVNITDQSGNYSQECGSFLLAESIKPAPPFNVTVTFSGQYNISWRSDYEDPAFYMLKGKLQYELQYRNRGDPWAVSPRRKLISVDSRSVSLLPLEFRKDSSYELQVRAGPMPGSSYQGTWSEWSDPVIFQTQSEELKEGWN

- binding result: no binding
B1: mIL-7 (ligand, mouse, UniProt P10168 26-154, looked up)
chain: ECHIKDKEGKAYESVLMISIDELDKMTGTDSNCPNNEPNFFRKHVCDDTKEAAFLNRAARKLKQFLKMNISEEFNVHLLTVSQGTQTLVNCTSKEEKNVKEQKKNDACFLKRLLREIKTCWNKILKGSI

- binding result: no binding
B2: mIL-2 (ligand, mouse, UniProt P04351 21-169, looked up)
chain: APTSSSTSSSTAEAQQQQQQQQQQQQHLEQLLMDLQELLSRMENYRNLKLPRMLTFKFYLPKQATELKDLQCLEDELGPLRHVLDLTQSKSFQLEDAENFISNIRVTVVKLKGSDNTFECQFDDESATVVDFLRRWIAFCQSIISTSPQ
